Substitutions are numbered along the chain they refer to.
Key:
[1] = target: MST1R on cells (293alpha cells transfected with pcDNA-DEST40 MST1R; endogenous on PC3, T-47D and BxPC-3 cells) (human, UniProt Q04912 25-1400); test: cell-based or functional assay
[2] = target: T1, cynomolgus monkey MST1R with N-terminal Flag tag, expressed on HEK293T cells (cynomolgus monkey, UniProt Q04912 27-1400 (human entry)); test: flow cytometry on transfected HEK293T cells, 2 ug/ml IgG1
T1 construct: ORF cloned excluding the signal peptide region; also called cynomolgus MST1R; not shown: N-terminal Flag tag from vector pFLAG-myc-CMV-19 (Sigma)
T1 chain: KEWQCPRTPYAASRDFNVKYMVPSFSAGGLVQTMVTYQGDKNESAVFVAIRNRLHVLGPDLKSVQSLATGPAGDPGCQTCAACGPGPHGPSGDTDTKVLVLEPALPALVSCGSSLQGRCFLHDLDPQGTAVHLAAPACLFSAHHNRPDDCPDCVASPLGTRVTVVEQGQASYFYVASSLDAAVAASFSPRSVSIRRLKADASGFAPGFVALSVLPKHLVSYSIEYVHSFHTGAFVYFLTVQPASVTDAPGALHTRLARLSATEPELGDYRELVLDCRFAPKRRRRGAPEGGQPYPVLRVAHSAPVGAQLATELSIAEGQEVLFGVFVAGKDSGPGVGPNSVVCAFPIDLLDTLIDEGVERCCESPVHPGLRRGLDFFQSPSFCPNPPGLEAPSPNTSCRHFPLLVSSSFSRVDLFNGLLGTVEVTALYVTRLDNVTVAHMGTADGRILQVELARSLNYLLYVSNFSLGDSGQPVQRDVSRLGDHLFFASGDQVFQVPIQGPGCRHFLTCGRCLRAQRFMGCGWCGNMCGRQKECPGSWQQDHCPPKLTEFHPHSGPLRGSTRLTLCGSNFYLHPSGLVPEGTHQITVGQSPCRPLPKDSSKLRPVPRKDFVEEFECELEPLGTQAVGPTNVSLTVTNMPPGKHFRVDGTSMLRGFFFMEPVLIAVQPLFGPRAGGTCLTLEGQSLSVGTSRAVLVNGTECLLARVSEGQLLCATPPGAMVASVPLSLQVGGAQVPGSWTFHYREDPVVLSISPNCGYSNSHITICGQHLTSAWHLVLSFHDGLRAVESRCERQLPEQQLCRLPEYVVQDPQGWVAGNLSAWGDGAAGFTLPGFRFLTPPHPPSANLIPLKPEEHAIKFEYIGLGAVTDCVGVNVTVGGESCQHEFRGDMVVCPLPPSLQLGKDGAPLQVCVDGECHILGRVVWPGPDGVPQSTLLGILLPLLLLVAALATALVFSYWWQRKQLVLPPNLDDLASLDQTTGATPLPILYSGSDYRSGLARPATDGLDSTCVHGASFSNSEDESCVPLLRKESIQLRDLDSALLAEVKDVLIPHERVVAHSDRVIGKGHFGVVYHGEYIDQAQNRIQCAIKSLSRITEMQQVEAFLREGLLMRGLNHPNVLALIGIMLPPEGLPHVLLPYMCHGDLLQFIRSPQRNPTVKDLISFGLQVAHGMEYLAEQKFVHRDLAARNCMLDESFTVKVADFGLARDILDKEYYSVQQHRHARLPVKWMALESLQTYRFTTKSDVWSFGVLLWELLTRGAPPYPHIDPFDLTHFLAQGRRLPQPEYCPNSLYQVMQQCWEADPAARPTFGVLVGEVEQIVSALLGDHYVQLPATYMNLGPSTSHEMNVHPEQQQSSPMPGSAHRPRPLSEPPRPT
Method: Cells (5×10⁵ cells/well) were incubated with Fab or IgG antibodies at the indicated concentrations in 50 μl FACS buffer (PBS, 5% FCS) for 60 min at 4° C. in round bottom 96-well culture plates (Corning). Cells were washed twice and then incubated with Fluorescein Isothiocyanate (FITC) conjugated detection antibody for 30 min at 4° C. Cells were washed again, resuspended in 0.3 ml FACS buffer and then analyzed by flow cytometry in a Cytomics FC500 (Beckman Coulter, Inc.). Data were analysed via FlowJo software (Tomy digital biology Co., Ltd.). Polyclonal goat anti-hMSP R IgG (R&D systems) or anti-FLAG M2 antibody (Sigma) was used as a positive control and MOR03207 (anti-lysozyme) antibody was used as a negative control.
FACS-analysis of MST1R ortholog-expressing cells: Human MST1R (cDNA nucleotide sequence is shown as GenBank Accession No: NM_{—}002447.2), cynomolgus monkey MST1R and mouse MST1R (cDNA nucleotide sequence is shown as GeneBank Accession No: NM_{—}009074.1) expression vector containing N-terminal Flag tag (pFLAG-myc-CMV-19, Sigma) were constructed. cDNA encoding cynomolgus monkey MST1R was amplified by PCR using cynomolgus monkey stomach cDNA as a template with forward and reverse primers having nucleotide sequences of SEQ ID NO: 34 and 35, respectively. By sequencing analysis of PCR product, the cynomolgus MST1R ORF nucleotide sequence was identified as shown in SEQ ID NO: 36. The corresponding amino acid sequence was shown in SEQ ID NO: 37. Then human, cynomolgus monkey and mouse MST1R ORF cDNA, excluding signal peptide regions, were amplified using respective forward and reverse primers having nucleotide sequences of SEQ ID NO: 38 and 39 (human), 40 and 41 (cynomolgus monkey), and 42 and 43 (mouse) with appropriate cloning sites and then cloned into pFLAG-myc-CMV-19. An amplified human MST1R fragment encodes amino acids corresponding to GenBank Accession No: NP_{—}002438.2 (SEQ ID NO: 45). A Mouse MST1R fragment encodes amino acids corresponding to GenBank Accession No: NP_{—}033100.1 (SEQ ID NO: 47) except for those amino acid differences at positions: 688 (Leu to Pro), 713 (Ile to Val), 714 (Ala to Gly) and 719 (Ala to Val). These expression vectors were transfected into HEK293T cells. For FACS-analysis, cells were incubated with 2 μg/ml primary antibodies followed by incubation with FITC-labeled secondary antibody as described above.

[3] = target: T2, recombinant MST1R-Fc fusion protein (containing 25-571 amino acid sequence of human MST1R, R&D) (human, UniProt Q04912 25-571); test: SPR (Biacore 3000), Fab over directly immobilized MST1R-Fc
T2 construct: Bought from R&D systems; also called immobilized recombinant human MST1R; not shown: Fc part of the bought fusion protein (R&D systems)
T2 chain: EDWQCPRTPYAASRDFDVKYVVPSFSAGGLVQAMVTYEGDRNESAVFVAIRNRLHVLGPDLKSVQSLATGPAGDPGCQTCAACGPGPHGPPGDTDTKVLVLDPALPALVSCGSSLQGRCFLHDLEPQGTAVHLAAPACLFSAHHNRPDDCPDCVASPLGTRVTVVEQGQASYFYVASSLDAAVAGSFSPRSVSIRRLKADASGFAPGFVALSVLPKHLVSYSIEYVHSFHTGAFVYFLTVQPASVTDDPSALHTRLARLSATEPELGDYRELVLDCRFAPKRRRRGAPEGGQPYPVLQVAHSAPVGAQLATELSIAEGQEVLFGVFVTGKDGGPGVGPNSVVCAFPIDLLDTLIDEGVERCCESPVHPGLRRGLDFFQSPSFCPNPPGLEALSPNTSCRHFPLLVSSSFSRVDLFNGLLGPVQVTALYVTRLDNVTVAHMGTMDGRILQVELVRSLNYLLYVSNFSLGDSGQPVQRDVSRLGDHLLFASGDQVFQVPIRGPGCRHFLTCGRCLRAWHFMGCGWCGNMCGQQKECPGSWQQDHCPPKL
Method: With reference to Table 1, the affinity of MOR X antibodies was measured by surface plasmon resonance (Biacore) on immobilized recombinant human MST1R. The Biacore studies were performed on directly immobilized antigen.
The kinetic constants kₒₙ and koff were determined with serial dilutions of the respective Fab binding to covalently immobilized MST1R-Fc fusion protein (R&D systems) using the BIAcore 3000 instrument (Biacore). For covalent antigen immobilization standard EDC-NHS amine coupling chemistry was used. For direct coupling of MST1R-Fc fusion protein CM5 sensor chips (Biacore) were coated with ˜600-700 RU in 10 mM acetate buffer, pH 4.5. For the reference flow cell a respective amount of HSA (human serum albumin) was used. Kinetic measurements were done in PBS (136 mM NaCl, 2.7 mM KCl, 10 mM Na₂HPO₄, 1.76 mM KH₂PO₄ pH 7.4) at a flow rate of 20 μl/min using Fab concentration range from 15.6-500 nM. Injection time for each concentration was 1 min, followed by 3 min dissociation phase. For regeneration […] 10 mM HCl was used. All sensograms were globally fitted using BIA evaluation software 3.2 (Biacore).

[4] = target: T2, recombinant MST1R-Fc fusion protein …; test: Solution Equilibrium Titration (SET, ECL based), Fab
[5] = target: T2, recombinant MST1R-Fc fusion protein …; test: Solution Equilibrium Titration (SET, ECL based), Fab; SET (Fab), in solution; not Biacore on immobilized antigen

B1: MOR07919 (human IgG1) (antibody, V domains shown)
VH: QVQLVQSGAEVKKPGESLKISCKGSGYSFTNYWISWVRQMPGKGLEWMGFIYPDDSYTRYSPSFQGQVTISADKSISTAYLQWSSLKASDTAMYYCARFSYRHYLDMDDHWGQGTLVTVSS
VL: DIELTQPPSVSVAPGQTARISCSGDSLGSKYVHWYQQKPGQAPVLVIYRDNKRPSGIPERFSGSNSGNTATLTISGTQAEDEADYYCQSYDATEFTYVFGGGTKLTVLG
Reporter assay IC50 (ng/ml); Elk1 luciferase reporter gene assay in the presence of 100 ng/ml MSP [1]: 87.6 ng/mL | binding result [2]: binds

B2: MOR07923 Fab (Fab, V domains shown)
VH: QVQLVESGGGLVQPGGSLRLSCAASGFTFNSYSMSWVRQAPGKGLEWVSYISSRSSTTYYADSVKGRFTISRDNSKNTLYLQMNSLRAEDTAVYYCARGYFHGMDYWGQGTLVTVSS
VL: DIVLTQSPATLSLSPGERATLSCRASQSVSFDYLGWYQQKPGQAPRLLIYGASNRATGVPARFSGSGSGTDFTLTISSLEPEDFATYYCFQYLIVPFTFGQGTKVEIKR
notes: carries two C-terminal tags (FLAG and Strep-tag II); also called Fab MOR07923
Kd [3]: 0.07 nM | Kd [4]: 0.02 nM

B3: MOR07692 Fab (Fab, V domains shown)
VH: B2 VH
VL: B2 VL with F90Q, L93Y, I94N, V95M, F97Y
notes: carries two C-terminal tags (FLAG and Strep-tag II); also called Fab MOR07692
Kd [3]: 0.8 nM | Kd [5]: 0.25 nM

B4: MOR07924 Fab (Fab, V domains shown)
VH: B2 VH
VL: B2 VL with F90Q, L93N, V95N
notes: carries two C-terminal tags (FLAG and Strep-tag II); also called Fab MOR07924
Kd [3]: 0.2 nM | Kd [4]: 0.03 nM

B5: MOR07925 Fab (Fab, V domains shown)
VH: B2 VH
VL: B2 VL with F90L, L93F, I94N, V95P, F97H
notes: carries two C-terminal tags (FLAG and Strep-tag II); also called Fab MOR07925
Kd [3]: 0.02 nM | Kd [4]: 0.01 nM

B6: MOR07926 Fab (Fab, V domains shown)
VH: B2 VH
VL: B2 VL with Y92A, V95M
notes: carries two C-terminal tags (FLAG and Strep-tag II); also called Fab MOR07926
Kd [3]: 0.13 nM | Kd [4]: 0.04 nM

B7: MOR07919 Fab (Fab, V domains shown)
VH: B1 VH
VL: B1 VL
notes: carries two C-terminal tags (FLAG and Strep-tag II); also called Fab MOR07919
Kd [3]: 0.98 nM | Kd [4]: 0.27 nM
